Assay results as given in patent publication US20220380407A1 (WASHINGTON UNIVERSITY, published 2022).
Positions of bridges follow the written chain, without caps; N, C: chain ends. Non-standard residues stand in square brackets, D forms with d. Primed or numbered codes have the meaning given here. *: point of attachment. X9 = 1‑((5-chloro-2-methoxyphenyl)sulfonyl)piperidin‑4‑yl carbamate, COc1ccc(Cl)cc1S(=O)(=O)N1CCC(OC(=O)*)CC1; X8 = 1‑((4-chlorophenyl)sulfonyl)piperidin‑4‑yl carbamate, O=C(OC1CCN(S(=O)(=O)c2ccc(Cl)cc2)CC1)*; X5 = 1‑acetyl‑4‑phenethylpiperidin‑4‑yl carbamate, CC(=O)N1CCC(CCc2ccccc2)(OC(=O)*)CC1; X4 = 1‑(phenylsulfonyl)piperidin‑4‑yl carbamate, O=C(OC1CCN(S(=O)(=O)c2ccccc2)CC1)*; X1 = 4‑phenylpiperidin‑4‑yl carbamate, O=C(OC1(c2ccccc2)CCNCC1)*; kbt″ = ketobenzothiazole (C-terminal Arg), c1ccc2sc(*)nc2c1; kbt = C-terminal Arg ketobenzothiazole; Cha = N[C@@H](CC1CCCCC1)C(=O)O

T1: recombinant N-terminal His-tag HGFA serine protease domain (UniProt Q04756 373-655)
T1 sequence (looked up): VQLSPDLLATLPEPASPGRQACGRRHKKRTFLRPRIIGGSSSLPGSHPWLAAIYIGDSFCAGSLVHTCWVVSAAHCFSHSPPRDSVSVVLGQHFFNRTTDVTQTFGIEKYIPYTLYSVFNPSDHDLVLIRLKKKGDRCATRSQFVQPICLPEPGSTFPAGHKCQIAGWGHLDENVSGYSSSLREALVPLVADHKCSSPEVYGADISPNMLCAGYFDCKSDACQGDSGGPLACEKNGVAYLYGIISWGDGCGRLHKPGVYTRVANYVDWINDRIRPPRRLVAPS

T2: matriptase (#3946-SE-010, R&D Systems) (UniProt Q9Y5Y6 615-855)
T2 sequence (looked up): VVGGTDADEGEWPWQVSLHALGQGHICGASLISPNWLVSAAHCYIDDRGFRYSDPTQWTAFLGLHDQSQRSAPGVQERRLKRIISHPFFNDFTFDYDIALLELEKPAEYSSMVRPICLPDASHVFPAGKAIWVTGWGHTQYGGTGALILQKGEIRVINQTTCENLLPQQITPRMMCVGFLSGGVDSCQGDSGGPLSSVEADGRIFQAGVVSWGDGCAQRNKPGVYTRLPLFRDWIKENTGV

B1: Cyclo(DMK)R-kbt, VD3173 (peptide)
peptide: Ac-DMKR-kbt
modifications: lactam 1-3; not fully specified; printed as Cyclo(DMK)R-kbt; also: N-terminal acetyl described as 6-acetamido

Biological target: T1, recombinant N-terminal His-tag HGFA …
Assay: cell-based or functional assay

| Binder | HGFA (IC50 nM) |
| --- | --- |
| Ac-GQFR-kbt [MM3122 Ac-GQFR-kbt] | 32.5 nM |
| Ac-IQFR-kbt [MM3116 Ac-IQFR-kbt] | 30.2 nM |
| Ac-PQFR-kbt [MM3123 Ac-PQFR-kbt] | 75 nM |
| Ac-Gln-Phe-Arg-kbt [MM3144 Ac-QFR-kbt] | 13.8 nM |
| Ac-LQFR-kbt [MM3131 Ac-LQFR-kbt] | 98.2 nM |
| B1 | 3240 nM |
| Ac-MQFR-kbt [MM3130 Ac-MQFR-kbt] | 36.5 nM |
| Ac-DQKR-kbt (lactam 1-3; also: N-terminal acetyl described as 6-acetamido) [Cyclo(DQK)R-kbt, VD3152] | 16100 nM |

Biological target: T2, matriptase (#3946-SE-010, R&D Systems)
Assay: cell-based or functional assay

| Binder | Matriptase (IC50 nM) |
| --- | --- |
| Ac-GQFR-kbt [MM3122 Ac-GQFR-kbt] | 0.314 nM |
| Ac-IQFR-kbt [MM3116 Ac-IQFR-kbt] | 0.923 nM |
| Ac-PQFR-kbt [MM3123 Ac-PQFR-kbt] | 0.316 nM |
| Ac-LQFR-kbt [MM3131 Ac-LQFR-kbt] | 1.8 nM |
| B1 | 0.98 nM |
| Ac-MQFR-kbt [MM3130 Ac-MQFR-kbt] | 0.552 nM |
| Ac-DQKR-kbt (lactam 1-3; also: N-terminal acetyl described as 6-acetamido) [Cyclo(DQK)R-kbt, VD3152] | 7.7 nM |

Biological target: T3, activated hepsin (#4776-SE-010, R&D Systems) (UniProt P05981 45-417, limits assumed)
Assay: cell-based or functional assay

T3 sequence (P05981 45-417 limits assumed): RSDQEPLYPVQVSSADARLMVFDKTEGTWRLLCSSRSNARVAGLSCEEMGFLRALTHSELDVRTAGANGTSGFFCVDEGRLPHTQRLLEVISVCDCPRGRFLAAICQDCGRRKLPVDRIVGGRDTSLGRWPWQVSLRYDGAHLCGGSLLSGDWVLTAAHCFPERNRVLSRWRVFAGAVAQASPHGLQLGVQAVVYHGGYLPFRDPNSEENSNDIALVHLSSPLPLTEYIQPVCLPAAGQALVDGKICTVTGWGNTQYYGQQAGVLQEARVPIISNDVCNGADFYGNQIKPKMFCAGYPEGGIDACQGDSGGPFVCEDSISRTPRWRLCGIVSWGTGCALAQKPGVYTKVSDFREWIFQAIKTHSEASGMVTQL

| Binder | Hepsin (IC50 nM) |
| --- | --- |
| Ac-GQFR-kbt [MM3122 Ac-GQFR-kbt] | 0.194 nM |
| Ac-IQFR-kbt [MM3116 Ac-IQFR-kbt] | 0.14 nM |
| Ac-PQFR-kbt [MM3123 Ac-PQFR-kbt] | 0.136 nM |
| Ac-LQFR-kbt [MM3131 Ac-LQFR-kbt] | 0.247 nM |
| B1 | 5.9 nM |
| Ac-MQFR-kbt [MM3130 Ac-MQFR-kbt] | 0.135 nM |
| Ac-DQKR-kbt (lactam 1-3; also: N-terminal acetyl described as 6-acetamido) [Cyclo(DQK)R-kbt, VD3152] | 22.2 nM |

Biological target: T4, recombinant thrombin (#1473-SE-010, R&D Systems) (UniProt P00734 44-622)
Assay: cell-based or functional assay

| Binder | Thrombin* (IC50 nM) |
| --- | --- |
| Ac-GQFR-kbt [MM3122 Ac-GQFR-kbt] | > 20 nM |
| Ac-IQFR-kbt [MM3116 Ac-IQFR-kbt] | > 20 nM |
| Ac-PQFR-kbt [MM3123 Ac-PQFR-kbt] | > 20 nM |
| Ac-Gln-Phe-Arg-kbt [MM3144 Ac-QFR-kbt] | > 20 nM |
| Ac-LQFR-kbt [MM3131 Ac-LQFR-kbt] | > 20 nM |
| B1 | > 20000 nM |
| Ac-MQFR-kbt [MM3130 Ac-MQFR-kbt] | > 20 nM |
| Ac-DQKR-kbt (lactam 1-3; also: N-terminal acetyl described as 6-acetamido) [Cyclo(DQK)R-kbt, VD3152] | > 20000 nM |

Biological target: T5, Factor Xa (#1063-SE-010, R&D Systems) (UniProt P00742 41-488, limits assumed)
Assay: cell-based or functional assay

T5 sequence (P00742 41-488 limits assumed): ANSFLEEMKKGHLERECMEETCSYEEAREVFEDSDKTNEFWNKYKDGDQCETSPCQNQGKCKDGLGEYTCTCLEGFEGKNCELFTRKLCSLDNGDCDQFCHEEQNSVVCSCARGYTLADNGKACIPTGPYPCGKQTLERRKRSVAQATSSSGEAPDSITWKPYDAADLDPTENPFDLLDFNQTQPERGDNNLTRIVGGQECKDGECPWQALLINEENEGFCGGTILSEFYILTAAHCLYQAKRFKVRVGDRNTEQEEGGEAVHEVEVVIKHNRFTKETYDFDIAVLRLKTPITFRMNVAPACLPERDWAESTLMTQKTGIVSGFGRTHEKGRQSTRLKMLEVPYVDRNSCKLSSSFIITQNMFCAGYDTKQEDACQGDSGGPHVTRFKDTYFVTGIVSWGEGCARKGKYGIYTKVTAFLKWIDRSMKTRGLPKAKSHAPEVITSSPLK

| Binder | Factor Xa* (IC50 nM) |
| --- | --- |
| Ac-GQFR-kbt [MM3122 Ac-GQFR-kbt] | 700 nM |
| Ac-IQFR-kbt [MM3116 Ac-IQFR-kbt] | 792 nM |
| Ac-PQFR-kbt [MM3123 Ac-PQFR-kbt] | 199 nM |
| Ac-Gln-Phe-Arg-kbt [MM3144 Ac-QFR-kbt] | 1.4 nM |
| Ac-LQFR-kbt [MM3131 Ac-LQFR-kbt] | 219 nM |
| B1 | 1400 nM |
| Ac-MQFR-kbt [MM3130 Ac-MQFR-kbt] | 342 nM |
| Ac-DQKR-kbt (lactam 1-3; also: N-terminal acetyl described as 6-acetamido) [Cyclo(DQK)R-kbt, VD3152] | > 20000 nM |

Biological target: T1, recombinant N-terminal His-tag HGFA …
Assay: cell-based or functional assay
Remark: another data set of the same source

| Binder | HGFA IC50 |
| --- | --- |
| X4-Leu-Arg-kbt [1-(phenylsulfonyl)piperidin-4-yl Leu-Arg-kbt carbamate (8f)] | 8600 nM |
| X9-Leu-Arg-kbt [1-((5-chloro-2-methoxyphenyl)sulfonyl)piperidin-4-yl Leu-Arg-kbt carbamate (8l)] | 6300 nM |
| X1-[Cha]-Arg-{kbt″} [4-phenylpiperidin-4-yl Cha-Arg-kbt carbamate (8d)] | > 20000 nM |
| X1-Leu-Arg-kbt | 780 nM |
| {2‑phenyl‑1‑(piperidin-4-yl)ethyl carbamate}-Leu-Arg-kbt [2-phenyl-1-(piperidin-4-yl)ethyl Leu-Arg-kbt carbamate (11b)] | 6000 nM |
| X5-Leu-Arg-kbt [1-acetyl-4-phenethylpiperidin-4-yl Leu-Arg-kbt carbamate (8c)] | > 20000 nM |
| X8-Leu-Arg-kbt [1-((4-chlorophenyl)sulfonyl)piperidin-4-yl Leu-Arg-kbt carbamate (8i)] | 9000 nM |

Biological target: T2, matriptase (#3946-SE-010, R&D Systems)
Assay: cell-based or functional assay
Remark: another data set of the same source

| Binder | Matriptase IC50 |
| --- | --- |
| X4-Leu-Arg-kbt [1-(phenylsulfonyl)piperidin-4-yl Leu-Arg-kbt carbamate (8f)] | 810 nM |
| X9-Leu-Arg-kbt [1-((5-chloro-2-methoxyphenyl)sulfonyl)piperidin-4-yl Leu-Arg-kbt carbamate (8l)] | 4000 nM |
| X1-[Cha]-Arg-{kbt″} [4-phenylpiperidin-4-yl Cha-Arg-kbt carbamate (8d)] | 2100 nM |
| X1-Leu-Arg-kbt | 90 nM |
| {2‑phenyl‑1‑(piperidin-4-yl)ethyl carbamate}-Leu-Arg-kbt [2-phenyl-1-(piperidin-4-yl)ethyl Leu-Arg-kbt carbamate (11b)] | 20 nM |
| X5-Leu-Arg-kbt [1-acetyl-4-phenethylpiperidin-4-yl Leu-Arg-kbt carbamate (8c)] | 70 nM |
| X8-Leu-Arg-kbt [1-((4-chlorophenyl)sulfonyl)piperidin-4-yl Leu-Arg-kbt carbamate (8i)] | 2400 nM |

Biological target: T3, activated hepsin (#4776-SE-010, R&D …)
Assay: cell-based or functional assay
Remark: another data set of the same source

| Binder | Hepsin IC50 |
| --- | --- |
| X4-Leu-Arg-kbt [1-(phenylsulfonyl)piperidin-4-yl Leu-Arg-kbt carbamate (8f)] | 20 nM |
| X9-Leu-Arg-kbt [1-((5-chloro-2-methoxyphenyl)sulfonyl)piperidin-4-yl Leu-Arg-kbt carbamate (8l)] | 60 nM |
| X1-[Cha]-Arg-{kbt″} [4-phenylpiperidin-4-yl Cha-Arg-kbt carbamate (8d)] | 90 nM |
| X1-Leu-Arg-kbt | 5 nM |
| {2‑phenyl‑1‑(piperidin-4-yl)ethyl carbamate}-Leu-Arg-kbt [2-phenyl-1-(piperidin-4-yl)ethyl Leu-Arg-kbt carbamate (11b)] | 2 nM |
| X5-Leu-Arg-kbt [1-acetyl-4-phenethylpiperidin-4-yl Leu-Arg-kbt carbamate (8c)] | 0.5 nM |
| X8-Leu-Arg-kbt [1-((4-chlorophenyl)sulfonyl)piperidin-4-yl Leu-Arg-kbt carbamate (8i)] | 60 nM |

Biological target: T4, recombinant thrombin (#1473-SE-010, R&D …)
Assay: cell-based or functional assay
Remark: another data set of the same source

| Binder | Thrombin IC50 |
| --- | --- |
| X4-Leu-Arg-kbt [1-(phenylsulfonyl)piperidin-4-yl Leu-Arg-kbt carbamate (8f)] | > 20000 nM |
| X1-[Cha]-Arg-{kbt″} [4-phenylpiperidin-4-yl Cha-Arg-kbt carbamate (8d)] | > 20000 nM |
| X1-Leu-Arg-kbt | > 20000 nM |
| X5-Leu-Arg-kbt [1-acetyl-4-phenethylpiperidin-4-yl Leu-Arg-kbt carbamate (8c)] | 7700 nM |

Biological target: T5, Factor Xa (#1063-SE-010, R&D Systems)
Assay: cell-based or functional assay
Remark: another data set of the same source

| Binder | Factor Xa IC50 |
| --- | --- |
| X4-Leu-Arg-kbt [1-(phenylsulfonyl)piperidin-4-yl Leu-Arg-kbt carbamate (8f)] | > 20000 nM |
| X1-[Cha]-Arg-{kbt″} [4-phenylpiperidin-4-yl Cha-Arg-kbt carbamate (8d)] | 9000 nM |
| X5-Leu-Arg-kbt [1-acetyl-4-phenethylpiperidin-4-yl Leu-Arg-kbt carbamate (8c)] | 2000 nM |

Biological target: T1, recombinant N-terminal His-tag HGFA …
Assay: cell-based or functional assay
Remark: another data set of the same source

| Binder | HGFA IC50 |
| --- | --- |
| B1 | 3240 nM |
| Ac-DQKR-kbt (lactam 1-3; also: N-terminal acetyl described as 6-acetamido) [Cyclo(DQK)R-kbt, VD3152] | 16100 nM |

Biological target: T2, matriptase (#3946-SE-010, R&D Systems)
Assay: cell-based or functional assay
Remark: another data set of the same source

| Binder | Matriptase IC50 |
| --- | --- |
| B1 | 1 nM |
| Ac-DQKR-kbt (lactam 1-3; also: N-terminal acetyl described as 6-acetamido) [Cyclo(DQK)R-kbt, VD3152] | 7.7 nM |

Biological target: T3, activated hepsin (#4776-SE-010, R&D …)
Assay: cell-based or functional assay
Remark: another data set of the same source

| Binder | Hepsin IC50 |
| --- | --- |
| B1 | 5.9 nM |
| Ac-DQKR-kbt (lactam 1-3; also: N-terminal acetyl described as 6-acetamido) [Cyclo(DQK)R-kbt, VD3152] | 22 nM |

Biological target: human TMPRSS2 (human, UniProt O15393 1-492)
Assay: cell-based or functional assay

human TMPRSS2, sequence (O15393 whole entry): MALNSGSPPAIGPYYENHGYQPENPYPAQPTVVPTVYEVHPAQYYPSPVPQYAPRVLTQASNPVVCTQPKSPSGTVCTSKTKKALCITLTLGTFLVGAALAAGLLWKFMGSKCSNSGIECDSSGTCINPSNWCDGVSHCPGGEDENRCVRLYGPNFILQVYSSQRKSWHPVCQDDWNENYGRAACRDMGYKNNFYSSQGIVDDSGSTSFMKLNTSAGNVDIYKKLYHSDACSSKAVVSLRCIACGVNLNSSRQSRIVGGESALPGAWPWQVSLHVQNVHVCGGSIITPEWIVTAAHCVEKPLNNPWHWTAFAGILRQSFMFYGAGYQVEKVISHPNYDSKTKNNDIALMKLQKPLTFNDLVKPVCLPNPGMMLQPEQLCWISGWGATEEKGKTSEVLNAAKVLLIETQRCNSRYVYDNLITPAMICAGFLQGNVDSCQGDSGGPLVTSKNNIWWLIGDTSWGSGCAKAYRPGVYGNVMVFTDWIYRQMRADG

| Binder | Calu-3 EC50 |
| --- | --- |
| B1 | 119 nM |
| Ac-DQKR-kbt (lactam 1-3; also: N-terminal acetyl described as 6-acetamido) [Cyclo(DQK)R-kbt, VD3152] | 138 nM |
